# Measurements as given in the supplement of paper PMC10567573.
# ± gives the standard deviation.
# Assay: protein stability index of a GFP-peptide fusion (GPS, HEK-293T) (PSI 1-6); higher = more stable
# Conditions: c terminus: a fixed tail appended
# 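Also: 24-mer peptide tiles fused after GFP, lentivirally expressed, FACS-sorted into six equal bins by GFP/DsRed ratio, decoded by Illumina sequencing, PSI is the read-weighted mean bin number.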
Sequence,protein stability index (treatment: DMSO),"protein stability index (treatment: MLN4924 1 uM, 8 h)"
KYGGPNHHLPLPDNWKSQVEPETR [CPN1],4.16 ± 0.3,4.55 ± 0.28
KYLKKREDSIPLRGLSQNLFSNSD [SASS6],3.15 ± 0.2,3.4 ± 0.29
LAAVAWVGQQVHNLLLTYLIVTSL [ARL6IP1],3.32 ± 0.44,3.3 ± 0.53
LACGSNRFNKLGLDHLSLGEEPVP [NEK8],3.12 ± 0.14,3.2 ± 0.14
LAGAALEPAGGGRSREARSRLLLL [SMAD6],3.38 ± 0.27,3.65 ± 0.31
LALFSHLVNHVNIRLQAELEEGEN [SMG5],2.5 ± 0.21,2.7 ± 0.44
LAMGTVSLGQLPLPPIPHVFSAGT [PLAGL1],2.24 ± 0.26,2.4 ± 0.34
LANLRGLSEEERSEKAMLRSRIEE [CCDC89],4.67 ± 0.22,4.68 ± 0.12
LASHLPVGVMLPHNTTEAPGPHSA [ZC2HC1C],4.3 ± 0.21,4.17 ± 0.21
LASQALTPPPGPASAQPLPAPEAA [TFE3],5.26 ± 0.25,5.24 ± 0.11
LAVYIDKVRSLETENSALQLQVTE [LMNB1],2.25 ± 0.24,2.52 ± 0.083
LCARLAAGPGAAEPLPVERDPAAG [ZNF511],4.47 ± 0.21,4.6 ± 0.21
LDTERPVQKRARSGPQPRLPPCLL [TRIB3],3.89 ± 0.41,4.1 ± 0.3
LDYTADEDGVWYSVAPMNVRRGLA [KLHL12],2.41 ± 0.81,2.99 ± 0.47
LEAQVESLKEELMCLKKNHEEEVS [KRT36],5.47 ± 0.42,5.46 ± 0.15
LEEKRLTWRLPDVSEAGGSGRLSA [FCHO1],4.37 ± 0.25,4.25 ± 0.044
LEFSLLSYAFGKFPTVVWTWWIMF [SOAT1],2.98 ± 0.6,2.95 ± 0.59
LEFYRYYQQLKLEGPGEQETKLDL [SLC29A1],2.953 ± 0.027,3.11 ± 0.35
LEHVRALIKKYSDHLENVSKLVES [TRIM55],3.02 ± 0.28,3.1 ± 0.17
LENAEVLELTVRRVQGVLRGRARE [HES6],3.81 ± 0.33,3.88 ± 0.19
LEQTAREILTLLQGVHQGAGFQDI [TSN],3.07 ± 0.32,2.81 ± 0.38
LESLQDGAAESPYSHLGGIDYKTT [RAB40A],4.44 ± 0.12,4.35 ± 0.11

Sequence,protein stability index (treatment: DMSO),"protein stability index (treatment: MLN4924 1 uM, 8 h)"
LFTDLFDRKGYMFDYEYDWIGKQL [CSNK1G3],2.24 ± 0.32,2.15 ± 0.3
LGKESFYDTFHTVADMMYFCQMLA [HACD3],2.56 ± 0.92,3.15 ± 0.99
LGLSRAQPVQSKPQKASAPAADPP [PDLIM7],4.71 ± 0.16,4.86 ± 0.37
LHASTVKRYGLGAHRGRLNIQAGI [CPXM2],2.52 ± 0.12,2.51 ± 0.2
LHKQTASDLLDEKEIAKNLIQPIN [FEM1C],3.38 ± 0.22,3.89 ± 0.18
LIETYTGLMSFIGNRNKLGYSLAR [TPRG1],2.31 ± 0.31,2.21 ± 0.16
LIFGLITCLTGVLGVGLGVEISRR [SPNS1],2.66 ± 0.23,3.13 ± 0.46
LIILASGGPQALVNIMRTYTYEKL [CTNNB1],3.04 ± 0.21,3.35 ± 0.76
LIKAKSQARLEEQQRLAHLEDKLR [LRRC45],3.77 ± 0.25,3.96 ± 0.25
LKDWEHSIALRNISLAKGPPGPKG [SCARA5],3.68 ± 0.25,3.78 ± 0.36
LKEELAYLKKNHEEEMNALRGQVG [KRT17],4.01 ± 0.36,4.05 ± 0.66
LKMSYSRGLIPVKRGPSSRSGGPP [RBMY1A1],2.95 ± 0.25,3.16 ± 0.37
LKNGSMGSPVNQQPKKNNVMARTR [FAM219A],3.96 ± 0.32,4.13 ± 0.27
LKPTFTKQQIANLDKQAKLSRAYD [USP39],3.61 ± 0.11,3.74 ± 0.16
LKSLDKEISEAFTSTGFDRHTSPV [BCL2L13],3.98 ± 0.36,4.12 ± 0.44
LLCPETYVWVPIEQCLPSLENSKY [ATE1],2.19 ± 0.15,2.03 ± 0.18
LLDSMCPASTPSVLSSEQEFQMFP [ETS2],3.94 ± 0.16,4.07 ± 0.28
LLEQGAQVNRRSAKGNTALHDCAE [FEM1A],4.81 ± 0.22,4.9 ± 0.23
LLHVSSPNLASDSDLSRRSSSTMS [KCNA1],4.26 ± 0.069,4.37 ± 0.055
LLKLEQNTCSVITTLKGHEGSVAC [WDFY1],2.84 ± 0.12,3.29 ± 0.32
LLLAHKADVNAQSSTGNTALTYAC [ANKRD17],2.76 ± 0.18,2.57 ± 0.18
LLLGLKDREGYTSFWNDCISSGLR [GOLPH3],2.43 ± 0.5,2.11 ± 0.23
